Assays:
Assay in all cases: double filter binding; 1 mM ciprofloxacin (modest effect); Double filter binding, 150 nM helicase hexamer, 4 nM ssDNA, 20 min inhibitor preincubation at 37 C; binding buffer not stated in the material (helicase buffer:)
[1] = target: SV40 large T antigen (TAg) (SV40, UniProt P03070 1-708); conditions: chain copies: 6; label: 5'-32P; single strand
[2] = target: Mcm467 (UniProt P30665;P53091;P38132 1-933;1-1017;1-845); conditions: chain copies: 2;2;2; label: 5'-32P; single strand
[3] = target: Mcm2-7 (UniProt P29469;P24279;P30665;P29496;P53091;P38132 1-868;1-971;1-933;1-775;1-1017;1-845); conditions: copies: 1;1;1;1;1;1; label: 5'-32P; single strand

Measured: binding result

Sequence of SV40 large T antigen (TAg) (P03070 whole entry): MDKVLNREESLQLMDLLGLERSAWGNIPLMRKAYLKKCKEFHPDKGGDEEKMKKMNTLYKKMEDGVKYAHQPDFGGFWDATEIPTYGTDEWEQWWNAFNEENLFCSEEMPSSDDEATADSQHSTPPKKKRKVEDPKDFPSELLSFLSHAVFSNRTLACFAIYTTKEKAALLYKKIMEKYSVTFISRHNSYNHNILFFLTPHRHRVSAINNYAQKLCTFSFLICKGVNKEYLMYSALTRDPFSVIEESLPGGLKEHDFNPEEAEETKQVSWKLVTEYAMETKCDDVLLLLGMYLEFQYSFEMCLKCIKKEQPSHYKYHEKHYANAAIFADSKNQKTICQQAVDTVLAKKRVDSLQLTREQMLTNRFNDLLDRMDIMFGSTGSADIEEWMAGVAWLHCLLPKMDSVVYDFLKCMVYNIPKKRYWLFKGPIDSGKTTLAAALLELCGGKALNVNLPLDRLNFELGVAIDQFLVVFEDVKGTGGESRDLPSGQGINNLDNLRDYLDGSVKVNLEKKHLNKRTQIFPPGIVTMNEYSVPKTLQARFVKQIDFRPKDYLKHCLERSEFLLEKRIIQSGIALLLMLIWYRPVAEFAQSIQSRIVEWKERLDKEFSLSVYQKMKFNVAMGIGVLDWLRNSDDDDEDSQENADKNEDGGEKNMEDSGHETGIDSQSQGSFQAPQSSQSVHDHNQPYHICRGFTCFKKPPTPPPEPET
Sequence of Mcm467 (P30665 whole entry, chain 1 of 3): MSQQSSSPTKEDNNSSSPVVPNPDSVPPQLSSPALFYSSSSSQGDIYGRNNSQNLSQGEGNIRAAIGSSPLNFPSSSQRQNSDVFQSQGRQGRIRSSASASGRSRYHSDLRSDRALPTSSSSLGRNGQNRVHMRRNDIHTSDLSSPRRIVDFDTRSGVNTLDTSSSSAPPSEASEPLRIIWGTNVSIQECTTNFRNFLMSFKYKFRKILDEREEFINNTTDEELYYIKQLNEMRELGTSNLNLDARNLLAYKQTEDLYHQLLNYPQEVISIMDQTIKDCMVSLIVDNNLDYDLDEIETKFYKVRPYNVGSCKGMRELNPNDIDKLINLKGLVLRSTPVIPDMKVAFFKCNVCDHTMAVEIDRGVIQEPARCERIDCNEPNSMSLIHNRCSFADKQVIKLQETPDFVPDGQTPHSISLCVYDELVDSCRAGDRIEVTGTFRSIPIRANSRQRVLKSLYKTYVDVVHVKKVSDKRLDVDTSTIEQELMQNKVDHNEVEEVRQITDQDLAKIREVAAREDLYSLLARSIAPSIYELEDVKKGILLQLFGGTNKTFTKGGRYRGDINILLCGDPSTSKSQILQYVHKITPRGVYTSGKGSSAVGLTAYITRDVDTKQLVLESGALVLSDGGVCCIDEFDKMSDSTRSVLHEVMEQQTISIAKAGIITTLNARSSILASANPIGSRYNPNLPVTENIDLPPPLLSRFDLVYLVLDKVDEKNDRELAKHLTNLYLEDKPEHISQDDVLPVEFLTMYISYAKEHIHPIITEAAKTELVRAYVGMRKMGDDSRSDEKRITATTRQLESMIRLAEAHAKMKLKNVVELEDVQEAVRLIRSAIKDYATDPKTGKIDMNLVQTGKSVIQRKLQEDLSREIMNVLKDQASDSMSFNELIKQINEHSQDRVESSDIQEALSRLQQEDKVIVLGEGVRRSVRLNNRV
Sequence of Mcm467 (P53091 whole entry, chain 2 of 3): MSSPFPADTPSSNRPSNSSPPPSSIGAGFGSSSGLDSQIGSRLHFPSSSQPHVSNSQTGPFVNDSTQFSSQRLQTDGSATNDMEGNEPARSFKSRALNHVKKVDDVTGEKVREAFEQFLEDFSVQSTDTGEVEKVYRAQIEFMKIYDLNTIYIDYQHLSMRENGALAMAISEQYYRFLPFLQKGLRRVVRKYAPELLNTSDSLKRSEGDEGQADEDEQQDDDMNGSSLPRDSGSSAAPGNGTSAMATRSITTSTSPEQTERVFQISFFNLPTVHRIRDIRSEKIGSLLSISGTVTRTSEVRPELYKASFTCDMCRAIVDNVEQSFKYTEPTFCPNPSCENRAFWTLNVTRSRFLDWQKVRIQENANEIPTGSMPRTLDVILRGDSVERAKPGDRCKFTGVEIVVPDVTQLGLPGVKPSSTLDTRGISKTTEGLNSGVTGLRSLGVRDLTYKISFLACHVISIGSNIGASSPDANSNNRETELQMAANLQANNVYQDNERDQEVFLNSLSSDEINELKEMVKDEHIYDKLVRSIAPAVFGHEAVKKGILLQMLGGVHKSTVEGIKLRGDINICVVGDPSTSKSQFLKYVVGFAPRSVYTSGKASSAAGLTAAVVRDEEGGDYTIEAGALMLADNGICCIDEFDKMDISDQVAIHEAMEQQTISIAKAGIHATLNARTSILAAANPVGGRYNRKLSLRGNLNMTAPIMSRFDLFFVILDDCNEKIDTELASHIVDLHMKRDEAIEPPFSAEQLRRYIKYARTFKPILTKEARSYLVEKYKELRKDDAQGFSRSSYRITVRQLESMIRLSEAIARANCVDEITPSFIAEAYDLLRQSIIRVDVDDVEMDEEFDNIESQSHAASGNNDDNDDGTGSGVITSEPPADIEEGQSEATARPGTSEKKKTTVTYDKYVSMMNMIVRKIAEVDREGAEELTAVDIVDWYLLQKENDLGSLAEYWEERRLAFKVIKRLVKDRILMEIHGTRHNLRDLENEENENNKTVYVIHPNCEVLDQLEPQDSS
Sequence of Mcm467 (P38132 whole entry, chain 3 of 3): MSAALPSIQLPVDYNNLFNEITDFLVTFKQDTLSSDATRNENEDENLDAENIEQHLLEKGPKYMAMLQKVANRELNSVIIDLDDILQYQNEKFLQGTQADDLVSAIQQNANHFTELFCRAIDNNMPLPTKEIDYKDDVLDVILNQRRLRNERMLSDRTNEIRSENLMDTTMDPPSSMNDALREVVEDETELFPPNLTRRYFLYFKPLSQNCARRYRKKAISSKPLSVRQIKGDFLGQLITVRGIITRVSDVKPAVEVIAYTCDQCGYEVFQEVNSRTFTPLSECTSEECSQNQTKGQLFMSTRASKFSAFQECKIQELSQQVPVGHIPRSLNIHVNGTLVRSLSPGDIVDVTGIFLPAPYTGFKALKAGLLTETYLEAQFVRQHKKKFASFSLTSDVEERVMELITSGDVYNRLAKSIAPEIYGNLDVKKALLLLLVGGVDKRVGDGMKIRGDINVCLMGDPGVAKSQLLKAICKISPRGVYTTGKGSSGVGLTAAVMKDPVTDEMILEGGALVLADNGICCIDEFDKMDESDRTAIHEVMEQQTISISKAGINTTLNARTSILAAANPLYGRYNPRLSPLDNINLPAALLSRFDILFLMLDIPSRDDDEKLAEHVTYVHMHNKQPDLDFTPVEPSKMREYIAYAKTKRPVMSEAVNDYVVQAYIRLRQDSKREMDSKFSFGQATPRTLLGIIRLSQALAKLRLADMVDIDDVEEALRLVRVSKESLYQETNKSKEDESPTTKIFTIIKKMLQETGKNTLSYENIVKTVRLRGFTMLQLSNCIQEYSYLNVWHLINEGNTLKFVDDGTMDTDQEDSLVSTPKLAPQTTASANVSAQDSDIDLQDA

TGTCTAATCCCGAAAGGCCCTGCCACTGAAATCAACACCTAAAGCATTGA (ssDNA) [oligo 826]
binds: [1] | [2] | [3]

From article PMC3791872, “Ciprofloxacin is an inhibitor of the Mcm2-7 replicative helicase”
